Results: US10428140B2, “Anti-EphA4 antibody” (EISAI R&D MANAGEMENT CO., LTD., priority 2015, dated 2019)

How the values were obtained:
[1] = tested on: human Eph receptor (EphA1-A8, A10, EphB1-B4, B6); experiment: Selectivity ELISA for human Eph receptor family; type: binding; details: antibody 10 μg/mL
Excerpt: According to the method described in Example 1, a DNA sequence encoding the signal sequence and the extracellular region of each human Eph receptor (EphA1, EphA2, EphA3, EphA4, EphA5, EphA6, EphA7, EphA8, EphA10, EphB1, EphB2, EphB3, EphB4, and EphB6) was amplified by RT-PCR using tissue-derived total RNA and cloned into a pENTR1A vector (Invitrogen/Life Technologies) having a DNA sequence encoding a human IgG1 Fc region and histidine tag. Next, the DNA sequence encoding the signal sequence and the extracellular region of each human Eph receptor, Fc, and histidine tag was transferred to a pcDNA3.1_rfcB vector through LR reaction using Gateway System (Invitrogen/Life Technologies) to construct a vector for the expression of a protein of the extracellular region of each human Eph receptor fused with the human IgG1 Fc region and the His tag (referred to as “Eph receptor extracellular region-Fc-His protein”) (this vector is referred to as “Eph receptor extracellular region-Fc-His protein expression vector”). […]
Antibody A was evaluated for its binding activity against each human Eph receptor according to the following steps.
(§1) Each well of a 96-well plate (Nunc) was coated with a donkey anti-human IgG antibody (Jackson ImmunoResearch Laboratories). […] The absorbance at 450 nm was read using a microplate reader (PerkinElmer).

[2] = tested on: mouse Eph receptor (EphA1-A8, A10, EphB1-B4, B6); experiment: Selectivity ELISA for mouse Eph receptor family; type: binding; details: antibody 10 μg/mL
Excerpt: According to the method described in Example 1, a DNA sequence encoding the signal sequence and the extracellular region of each mouse Eph receptor (EphA1, EphA3, EphA4, EphA5, EphA6, EphA7, EphA8, EphA10, EphB1, EphB2, EphB3, EphB4, and EphB6) was amplified by RT-PCR using tissue-derived total RNA and cloned into a pENTR1A vector (Invitrogen/Life Technologies) having a DNA sequence encoding a human IgG1 Fc region and histidine tag. Next, the DNA sequence encoding the signal sequence and the extracellular region of each mouse Eph receptor (EphA1, EphA3, EphA4, EphA5, EphA6, EphA7, EphA8, EphA10, EphB1, EphB2, EphB3, EphB4, and EphB6), Fc, and histidine tag was transferred to a pcDNA3.1_rfcB vector through LR reaction using Gateway System (Invitrogen/Life Technologies) to construct each mouse Eph receptor extracellular region-Fc-His protein expression vector. […]
Antibody A was evaluated for its binding activity against each mouse Eph receptor according to the following steps.
as §1

B1: antibody A: mouse anti-EphA4 monoclonal antibody, IgG1/κ; heavy chain variable region SEQ ID NO: 11, light chain variable region SEQ ID NO: 13 (antibody, listed as Mus musculus, V domains shown)
VH: QIQLVQSGPELKKPGETVKISCKASGYTFTDYSMHWVKQAPGKGLKWMGWINTETGEPTYADDFKGRFAFSLETSASTAYLQINNLKNEDTATYFCARIPLYYYGSRYWYFDVWGAGTTVTVSS
VL: DIQMTQSPASLSVSVGETVTITCRASENIYRNLAWYQQKQGKSPQLLVYAATNLADGVPSRFSGSGSGTQYSLKINSLQSEDFGSYYCQHFWGTPWTFGGGTKLEIK
[1]
  binding specificity among human Eph receptor family (in words): specifically had reaction activity only with human EphA4
[2]
  binding specificity among mouse Eph receptor family (in words): specifically had reaction activity only with mouse EphA4
